This is an account of results in patent US20220267458A1.

For assay [1], the target named is human GITR-His (human) (UniProt Q9Y5U5). The experiment in a line: ForteBio BLI, antibody on AHQ tip, human GITR-His 100 nM in solution. A general note: In BLI a coated tip is dipped into the sample, and binding shifts an interference pattern.
Assay [2] has the same target. In words: ForteBio BLI, antibody on AHQ tip, human GITR-His 100 nM in solution, 1:1 model.
The target is the same in assay [3]. The experiment in a line: ForteBio BLI, antibody on AHQ tip, human GITR-His 100 nM in solution. This is another data set of the same source.
Assay [4] addresses GITR protein overexpressed on Hela cells (Hela-GITR-NF-κB-Luc-Rep). In words: cell-based or functional assay.
In assay [5] the target is human GITR overexpressed on CHO cells (CHO-GITR) (human) (UniProt Q9Y5U5). The experiment in a line: flow cytometry on CHO-GITR cells, PE anti-human Fc detection, MFI; direct binding titration, the table row is labelled IC50, nM is taken from the concentration axis.
Chain of human GITR overexpressed on CHO cells (CHO-GITR) (human) (Q9Y5U5 26-241): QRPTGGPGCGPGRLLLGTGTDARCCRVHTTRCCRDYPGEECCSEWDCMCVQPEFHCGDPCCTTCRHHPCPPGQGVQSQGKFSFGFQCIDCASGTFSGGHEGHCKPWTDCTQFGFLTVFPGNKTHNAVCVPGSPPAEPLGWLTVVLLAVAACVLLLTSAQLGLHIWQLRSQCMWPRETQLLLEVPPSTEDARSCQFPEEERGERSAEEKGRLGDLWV

Chain of human GITR-His (human) (Q9Y5U5 other isoform, or with tags, fused parts or gaps): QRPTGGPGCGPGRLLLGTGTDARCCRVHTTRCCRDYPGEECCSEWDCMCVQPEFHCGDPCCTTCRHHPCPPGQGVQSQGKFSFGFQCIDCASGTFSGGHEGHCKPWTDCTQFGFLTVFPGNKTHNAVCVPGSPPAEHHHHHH

Take TRX518 (antibody): in the assay with human GITR-His (human) [1], the equilibrium dissociation constant (Kd) (in general, the concentration at which binding is half-saturated) worked out at 9.62 nM; the koff (usually the rate constant with which the complex falls apart) came to 0.00206 s⁻¹; the kon – broadly, a measure of how fast the partners come together – came out at 214000 M⁻¹ s⁻¹. Further, in the assay with human GITR-His (human) [2], the Kd was 26.2 nM, the koff came out at 0.00484 s⁻¹ and the kon is 185000 M⁻¹ s⁻¹. In the assay with human GITR-His (human) [3], the Kd came to 8.53 nM, the koff was 0.00292 s⁻¹ and the kon was 342000 M⁻¹ s⁻¹. This substance registered an EC50 for the activation (NF-κB luciferase reporter) in assay [4] of 2.1 nM. This substance displayed an EC50 for binding in assay [5] of 0.242 nM.
